Assay results: the supplement of paper PMC10201428
± gives the standard deviation of the averaged measurements.

What follows are sequences tested on VchCAST RNA-guided transposition machinery (E. coli BL21(DE3) host, lacZ target) (assay: relative integration efficiency (T-RL orientation) vs wild-type transposon end (log2 (normalized fold change)); transposon end mutated: left end; higher = more efficient transposition).
Description: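 Pooled, barcoded VchCAST (Tn6677) mini-transposon donor libraries; each variable transposon-end sequence sits in a fixed pDonor mini-transposon context (10-bp barcode and cargo not included). Left- or right-end libraries were co-transformed with pEffector (TniQ-Cascade, TnsABC, lacZ crRNA, T7, 0.1 mM IPTG) into E. coli BL21(DE3) and grown 18 h at 37 C. T-LR and T-RL junction amplicons were sequenced; output/input barcode fold change was normalised to the mean of four wild-type barcodes and log2-transformed. Two biological replicates; zero-count/undetected variants carry floor values (-10 / -15), censored here. Barcode uncoupling by PCR recombination adds noise.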

Row | Sequence | relative integration efficiency (log2)
1 | AATGTTGTTGATGCAACCATAAAGTGATATTTAATAATTATTTATAATCAGCAACCAACCATATATTGATATCTCACAAAACAACCATAAGTTGATATTTTTGTGAATCGAGTATTTCAGCAAAACTACTGCAGTAAGAAAGTTACTTCGTG | -6.44 ± 0.52
2 | AATGTTGTTGATGCAACCATAAAGTGATATTTAATAATTATTTATAATCAGCAACTTCCAACACCCCACCAACGCGCGGTCGCGAGACACCCCACCAACGCCTGGTCGCGGGGGTGTCCGATCTGATTTCAGCAAAACTACTGCAGTAAGAA | -4.36 ± 1.2
3 | AATGTTGTTGATGCAACCATAAAGTGATATTTATATTAATAAATATTAGTCGTTGAATTGGTGTTTTCAACCATATATTGATATCTCACAAAACAACCATAAGTTGATATTTTTGTGAATCGAGTATTTCAGCAAAACTACTGCAGTAAGAA | -3.31 ± 1.4
4 | AATGTTGTTGATGCAACCATAAAGTGATATTTAATAATTACAACCATAAAGTGATATTTAACTTAACCAACCATATATTGATATCTCACAAAACAACCATAAGTTGATATTTTTGTGAATCGAGTATTTCAGCAAAACTACTGCAGTAAGAA | -7.98 ± 1.5
5 | AATGTTGTTGATGCAACCATAAAGTGATATTTAATAATTATTTATAATCAGCAACTTAACCACAAAATGTGAATCGAGTATTTCAGCAAAACTACTGCAACCATATATTGATATCTCACAAAACAACCATAAGTTGATATTTTCAGTAAGAA | -6.39 ± 0.78
6 | AATGTTGTTGATGTGTTGATCAACCATAAAGTGATATTTAATAATTATTTATAATCAGCAACTTAACCACAAAACAACCATATATTGATATCTCACAAAACAACCATAAGTTGATATTTTTGTGAATCGAGTATTTCAGCAAAACTACTGCA | -4.39 ± 0.52
7 | AATGTTGTTGATGCAACCATAAAGTGAATAAATATAATTATTTATAATCAGCAACTTAACCACAAAACAACCATATATTGAATAGAGACAAAACAACCATAAGTTGAATAAAATGTGAATCGAGTATTTCAGCAAAACTACTGCAGTAAGAA | -4.14 ± 1.6
8 | AATGTTGTTGATGCAACCATAAAATGATAATTAATAATTATTTATAATCAGCAACTTAACCACAAAATAATTATCATTTTATGGTTGACAAAACAACCATAAAATGATAATTATGTGAATCGAGTATTTCAGCAAAACTACTGCAGTAAGAA | -5.2 ± 1.6
9 | AATGTTGTTGATGCAACCATAAAGTGATATTTAATAATTATTTATAATCAGCAACTTAACCACAAAACAACCATATCGGTCGCGAGACACCCCACCAACGCCTGGTCGCGGGGGTGTCCGATCTGATTTCAGCAAAACTACTGCAGTAAGAA | -6.09 ± 0.98
10 | AATGTTGTTGATGCAACCATAAAGTGATATTTAATAATTATTTATAATCAGCAACTTAACCAACCATATATTGATATCTCACAAAACAACCATAAGTTGATATTTTTGTGAATCGAGTATTTCAGCAAAACTACTGCAGTAAGAAAGTTACT | -5.17 ± 1.5
11 | AATGTTGTTGATGCAACCATAAAGTGATATTTAATAATTATTTATAATCAGCAACAACCATATATTGATATCTCACAAAACAACCATAAGTTGATATTTTTGTGAATCGAGTATTTCAGCAAAACTACTGCAGTAAGAAAGTTACTTCGTGG | -7.72 ± 1.1
12 | AATGTTGTTGATGCAACCATAAAGTGATATTTAATAACTTCGTATAGCATACATTATACGAAGTTATCAACCATATATTGATATCTCACAAAACAACCATAAGTTGATATTTTTGTGAATCGAGTATTTCAGCAAAACTACTGCAGTAAGAA | -4.52 ± 0.95
13 | AATGTTGTTGATGCAACCATAAAGTGATATTTAATAATTATTTATAATCAGCAACTTAACCACCAACCATATATTGATATCTCAAAAACAAAACAACCATAAGTTGATATTTTTGTGAATCGAGTATTTCAGCAAAACTACTGCAGTAAGAA | -2.83 ± 0.93
14 | AATGTTGTTGATGCAACCATAAAGTGATATTTAATAATTATGGCGCCGACTACCAGGCCAACACCCCACCAACGCGCGGTCGCGAGACACCCCACCAACGCCTGGTCGCGGGGGTGTCCGATCTGATTTCAGCAAAACTACTGCAGTAAGAA | -6.86 ± 1.3
15 | AATGTTGTTGATGCAACCATAAAGTGATATTTAATAATTATTTATCCGACTACCAGGCCAACACCCCACCAACGCGCGGTCGCGAGACACCCCACCAACGCCTGGTCGCGGGGGTGTCCGATCTGATTTCAGCAAAACTACTGCAGTAAGAA | -6.94 ± 1.3
16 | AATGTTGTTGATGCAACCATAAAGTGATATTTAATAATTATTTATAATCAGCAACTTAACCACAAACACCAACGCGCGGTCGCGAGACACCCCACCAACGCCTGGTCGCGGGGGTGTCCGATCTGATTTCAGCAAAACTACTGCAGTAAGAA | -6.34 ± 0.81
17 | AATGTTGTTGATGCAACCATAAAGTGATATTTAATAATTATTTATAACAACCATATATTGATATCTCACAAAACAACCATAAGTTGATATTTTTGTGAATCGAGTATTTCAGCAAAACTACTGCAGTAAGAAAGTTACTTCGTGGTATGGGA | -6.45 ± 1
18 | AATGTTGTTGATGTGTTGACAACCATAAAGTGATATTTAATAATTATTTATAATCAGCAACTTAACCACAAAACAACCATATATTGATATCTCACAAAACAACCATAAGTTGATATTTTTGTGAATCGAGTATTTCAGCAAAACTACTGCAG | -2.23 ± 0.63
19 | AATGTTGTTGATGCAACCATAAAGTGATATTTATACCGTTCGTATACGATACATTATACGAAGTTATCAACCATATATTGATATCTCACAAAACAACCATAAGTTGATATTTTTGTGAATCGAGTATTTCAGCAAAACTACTGCAGTAAGAA | -4.08 ± 1.3
20 | AATGTTGTTGATGCAACCATAAAGTGATATTTAATAATTCAACCATAAAGTGATATTTAACTTAACCCAACCATATATTGATATCTCACAAAACAACCATAAGTTGATATTTTTGTGAATCGAGTATTTCAGCAAAACTACTGCAGTAAGAA | -4.15 ± 0.95
21 | AATGTTGTTGATGCAACCATAAAGTGATATTTAATAATTATTTATAATCAGCAACTTAACCACAAAATGTGAATCGAGTATTTCAGCCAACCATATATTGATATCTCACAAAACAACCATAAGTTGATATTTTAAAACTACTGCAGTAAGAA | -5.8 ± 1.9
22 | AATGTTGTTGATGCAACCATAAAGTGATATTTAATAATTATTTATAACAACCATAAAGTGATATTTACAACCATATATTGATATCTCACAAAACAACCATAAGTTGATATTTTTGTGAATCGAGTATTTCAGCAAAACTACTGCAGTAAGAA | -6.17 ± 1.2
23 | AATGTTGTTGATGCAACCATAAAGTGATATTTAATAATTATTTATAATCAGCAACTTAACCCACCCCACCAACGCGCGGTCGCGAGACACCCCACCAACGCCTGGTCGCGGGGGTGTCCGATCTGATTTCAGCAAAACTACTGCAGTAAGAA | -6.3 ± 1.9
24 | AATGTTGTTGATGCAACCATAAAGGTCGCGGGCCGCCGGCGGGCGCCGACTACCAGGCCAACACCCCACCAACGCGCGGTCGCGAGACACCCCACCAACGCCTGGTCGCGGGGGTGTCCGATCTGATTTCAGCAAAACTACTGCAGTAAGAA | < -10
25 | AATGTTGTTGATGACCAACGCCTGGTCGCGGGGATAATTATTTATAATCAGCAACTTAACCACAAAACAACCATATATTGATATCTCACAAAACAACCATAAGTTGATATTTTTGTGAATCGAGTATTTCAGCAAAACTACTGCAGTAAGAA | -8.86 ± 0.67
26 | AATGTTGTTGATGCAACCATAAAGTGATATTTAATAATTATTTATAATCAGCAACTTAACCACAAAAGTTGGTATATAACTATAGAGACAAAAGTTGGTATTCAACTATAAAATGTGAATCGAGTATTTCAGCAAAACTACTGCAGTAAGAA | -6.13 ± 2.2
27 | AATGTTGTTGATGCAACCATAAAGTGATATTTAATAATTATTTATAATCAGCAACTTAACCACAAAACAACACGCGCGGTCGCGAGACACCCCACCAACGCCTGGTCGCGGGGGTGTCCGATCTGATTTCAGCAAAACTACTGCAGTAAGAA | -7.6 ± 2.4
